Experimental data published in publication PMC4434323.

What was measured:
[1] = target: T1, mnm-2 (C10A4.8) (Caenorhabditis elegans) (UniProt Q17895)
T1 sequence: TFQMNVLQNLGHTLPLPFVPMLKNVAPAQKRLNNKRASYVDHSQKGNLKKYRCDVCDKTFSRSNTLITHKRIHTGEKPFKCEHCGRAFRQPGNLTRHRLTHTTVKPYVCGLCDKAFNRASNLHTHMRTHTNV

[2] = target: T2, nhr-5 (Y73F8A.21) (Caenorhabditis elegans) (UniProt Q9NA51)
T2 sequence: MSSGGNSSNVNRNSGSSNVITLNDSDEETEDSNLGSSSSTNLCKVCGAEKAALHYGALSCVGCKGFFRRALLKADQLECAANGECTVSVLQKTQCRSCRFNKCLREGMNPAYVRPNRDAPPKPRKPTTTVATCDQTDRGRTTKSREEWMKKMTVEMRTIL

[3] = target: T3, let-381 (F26B1.7) (Caenorhabditis elegans) (UniProt P91278)
T3 sequence: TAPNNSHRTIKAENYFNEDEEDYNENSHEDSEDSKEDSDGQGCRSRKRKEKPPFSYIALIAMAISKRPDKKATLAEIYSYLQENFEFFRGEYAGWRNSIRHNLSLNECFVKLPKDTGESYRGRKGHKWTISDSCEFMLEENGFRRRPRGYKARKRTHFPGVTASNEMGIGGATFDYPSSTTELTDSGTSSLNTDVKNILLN

[4] = target: T4, fkh-9 (K03C7.2) (Caenorhabditis elegans) (UniProt Q21187)
T4 sequence: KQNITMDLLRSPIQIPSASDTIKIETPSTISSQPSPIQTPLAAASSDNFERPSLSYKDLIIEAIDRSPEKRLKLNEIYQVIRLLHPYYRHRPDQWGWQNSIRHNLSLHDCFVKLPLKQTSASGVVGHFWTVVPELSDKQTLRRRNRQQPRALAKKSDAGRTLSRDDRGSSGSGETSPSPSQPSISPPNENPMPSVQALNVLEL

[5] = system: T5, slr-2 (Y59A8B.13) (Caenorhabditis elegans)
T5 sequence: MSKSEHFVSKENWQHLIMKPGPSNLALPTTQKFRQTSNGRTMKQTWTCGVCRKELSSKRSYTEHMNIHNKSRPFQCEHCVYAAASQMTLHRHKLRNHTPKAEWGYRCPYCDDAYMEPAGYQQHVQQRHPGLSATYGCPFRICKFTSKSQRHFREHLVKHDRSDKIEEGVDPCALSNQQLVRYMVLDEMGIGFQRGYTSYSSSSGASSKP

[6] = target: T6, daf-12 (F11A1.3) (Caenorhabditis elegans) (UniProt G5EFF5)
T6 sequence: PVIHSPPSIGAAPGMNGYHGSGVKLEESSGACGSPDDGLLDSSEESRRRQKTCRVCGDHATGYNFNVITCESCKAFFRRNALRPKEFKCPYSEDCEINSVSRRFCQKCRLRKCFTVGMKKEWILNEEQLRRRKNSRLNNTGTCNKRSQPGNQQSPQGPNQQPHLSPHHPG

[7] = target: klf-3 (F54H5.4) (Caenorhabditis elegans) (UniProt Q65ZG6)
Chain of klf-3 (F54H5.4) (Caenorhabditis elegans) (Q65ZG6 180-315): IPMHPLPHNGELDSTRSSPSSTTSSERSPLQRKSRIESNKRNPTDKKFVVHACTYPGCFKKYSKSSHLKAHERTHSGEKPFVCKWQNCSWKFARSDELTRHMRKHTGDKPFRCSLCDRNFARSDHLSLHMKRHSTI

[8] = target: egrh-1 (C27C12.2) (Caenorhabditis elegans) (UniProt Q18250)
Chain of egrh-1 (C27C12.2) (Caenorhabditis elegans) (Q18250 324-461): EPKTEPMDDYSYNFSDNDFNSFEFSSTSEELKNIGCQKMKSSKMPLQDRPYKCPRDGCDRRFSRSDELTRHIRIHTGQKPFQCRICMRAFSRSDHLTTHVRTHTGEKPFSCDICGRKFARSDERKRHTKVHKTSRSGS

[9] = target: T7, ZK337.2 (ZK337.2) (Caenorhabditis elegans) (UniProt O46016)
T7 sequence: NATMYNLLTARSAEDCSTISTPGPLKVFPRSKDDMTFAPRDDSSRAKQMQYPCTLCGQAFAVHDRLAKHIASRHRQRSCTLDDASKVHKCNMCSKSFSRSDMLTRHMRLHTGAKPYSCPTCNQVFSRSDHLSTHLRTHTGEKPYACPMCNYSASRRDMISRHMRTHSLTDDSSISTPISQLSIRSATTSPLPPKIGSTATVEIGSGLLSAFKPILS

[10] = target: sptf-3 (Y40B1A.4) (Caenorhabditis elegans) (UniProt Q9XW26)
Chain of sptf-3 (Y40B1A.4) (Caenorhabditis elegans) (Q9XW26 266-412): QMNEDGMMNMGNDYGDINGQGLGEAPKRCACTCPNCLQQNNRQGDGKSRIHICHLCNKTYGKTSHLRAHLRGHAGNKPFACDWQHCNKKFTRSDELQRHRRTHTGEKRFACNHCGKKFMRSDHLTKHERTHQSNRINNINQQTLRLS

[11] = target: T8, nhr-66 (T09A12.4) (Caenorhabditis elegans) (UniProt H2KYJ8)
T8 sequence: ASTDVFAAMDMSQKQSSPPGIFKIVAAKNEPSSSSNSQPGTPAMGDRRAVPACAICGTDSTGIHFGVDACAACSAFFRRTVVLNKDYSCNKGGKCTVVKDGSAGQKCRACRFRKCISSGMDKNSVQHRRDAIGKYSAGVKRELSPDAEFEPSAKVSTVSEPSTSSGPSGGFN

[12] = target: T9, odr-7 (T18D3.2) (Caenorhabditis elegans) (UniProt P41933)
T9 sequence: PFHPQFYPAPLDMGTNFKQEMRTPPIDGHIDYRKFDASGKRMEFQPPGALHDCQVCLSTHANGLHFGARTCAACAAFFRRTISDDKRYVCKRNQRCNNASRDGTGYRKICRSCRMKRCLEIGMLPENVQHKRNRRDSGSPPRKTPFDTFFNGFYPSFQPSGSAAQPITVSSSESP

[13] = target: T10, nhr-70 (Y51A2D.17) (Caenorhabditis elegans) (UniProt G5EEL3)
T10 sequence: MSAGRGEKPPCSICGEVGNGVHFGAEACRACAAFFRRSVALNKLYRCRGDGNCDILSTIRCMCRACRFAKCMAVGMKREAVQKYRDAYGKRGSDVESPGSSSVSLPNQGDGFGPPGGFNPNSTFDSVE

[14] = target: ZC328.2 (ZC328.2) (Caenorhabditis elegans) (UniProt O02050)
Chain of ZC328.2 (ZC328.2) (Caenorhabditis elegans) (O02050 entry or part of it): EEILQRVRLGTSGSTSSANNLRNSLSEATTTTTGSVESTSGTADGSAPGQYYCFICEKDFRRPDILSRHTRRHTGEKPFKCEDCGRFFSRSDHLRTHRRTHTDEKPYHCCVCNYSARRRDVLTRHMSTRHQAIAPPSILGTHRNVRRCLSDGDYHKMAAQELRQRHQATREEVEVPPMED

In the case of “AGCGCATC (double strand) [8-mer AGCGCATC]”, the binding signal (PBM E-score (-0.5 to 0.5)) [1] is reported as 0.459.

For “AGTACACT (double strand) [8-mer AGTACACT]”, the binding signal (PBM E-score (-0.5 to 0.5)) [2] was 0.454.

Work on “ATAAACAA (double strand) [8-mer ATAAACAA]” yielded a binding signal (PBM E-score (-0.5 to 0.5)) [3] of 0.489 and a binding signal (PBM E-score (-0.5 to 0.5)) [4] of 0.485.

With “AAACTGCA (double strand) [8-mer AAACTGCA]” the binding signal (PBM E-score (-0.5 to 0.5)) [5] was 0.475.

Work on “AAGTGCAC (double strand) [8-mer AAGTGCAC]” yielded a binding signal (PBM E-score (-0.5 to 0.5)) [6] of 0.498 and a binding signal (PBM E-score (-0.5 to 0.5)) [2] of 0.453.

For “ATTGTTTA (double strand) [8-mer ATTGTTTA]”, the binding signal (PBM E-score (-0.5 to 0.5)) [3] was 0.467.

For “GTAAACAC (double strand) [8-mer GTAAACAC]”, the binding signal (PBM E-score (-0.5 to 0.5)) [3] was 0.452.

In the case of “GAAGTGCA (double strand) [8-mer GAAGTGCA]”, the binding signal (PBM E-score (-0.5 to 0.5)) [1] is reported as 0.459 and the binding signal (PBM E-score (-0.5 to 0.5)) [6] is reported as 0.491.

Work on “GAGTACAC (double strand) [8-mer GAGTACAC]” yielded a binding signal (PBM E-score (-0.5 to 0.5)) [2] of 0.461.

With “ACGCCCAC (double strand) [8-mer ACGCCCAC]” the binding signal (PBM E-score (-0.5 to 0.5)) [7] was 0.48, the binding signal (PBM E-score (-0.5 to 0.5)) [8] was 0.494 and the binding signal (PBM E-score (-0.5 to 0.5)) [9] was 0.492. The binding signal (PBM E-score (-0.5 to 0.5)) [10] was 0.454.

“GATGCGCC (double strand) [8-mer GATGCGCC]” gave a binding signal (PBM E-score (-0.5 to 0.5)) [1] of 0.464.

For “ATAGTACA (double strand) [8-mer ATAGTACA]”, the binding signal (PBM E-score (-0.5 to 0.5)) [2] was 0.452.

With “GACTACAA (double strand) [8-mer GACTACAA]” the binding signal (PBM E-score (-0.5 to 0.5)) [11] was 0.488, the binding signal (PBM E-score (-0.5 to 0.5)) [12] was 0.476 and the binding signal (PBM E-score (-0.5 to 0.5)) [13] was 0.495. The binding signal (PBM E-score (-0.5 to 0.5)) [5] was 0.468.

“GCGCATCA (double strand) [8-mer GCGCATCA]” was tested, and the binding signal (PBM E-score (-0.5 to 0.5)) [1] was 0.47.

“GAACTACA (double strand) [8-mer GAACTACA]” gave a binding signal (PBM E-score (-0.5 to 0.5)) [5] of 0.459.

“GGACTGCA (double strand) [8-mer GGACTGCA]” was tested, and the binding signal (PBM E-score (-0.5 to 0.5)) [5] was 0.476.

“GCGTATCC (double strand) [8-mer GCGTATCC]” gave a binding signal (PBM E-score (-0.5 to 0.5)) [1] of 0.454.

“AAAGTACG (double strand) [8-mer AAAGTACG]” showed a binding signal (PBM E-score (-0.5 to 0.5)) [2] of 0.462.

“GTTTATAA (double strand) [8-mer GTTTATAA]” was tested, and the binding signal (PBM E-score (-0.5 to 0.5)) [3] was 0.459.

With “AAAGTTCA (double strand) [8-mer AAAGTTCA]” the binding signal (PBM E-score (-0.5 to 0.5)) [2] was 0.46.

“AGTGCACT (double strand) [8-mer AGTGCACT]” showed a binding signal (PBM E-score (-0.5 to 0.5)) [6] of 0.497 and a binding signal (PBM E-score (-0.5 to 0.5)) [2] of 0.456.

“AGTAAACA (double strand) [8-mer AGTAAACA]” was tested, and the binding signal (PBM E-score (-0.5 to 0.5)) [3] was 0.457 and the binding signal (PBM E-score (-0.5 to 0.5)) [4] was 0.485.

With “AGACTGCA (double strand) [8-mer AGACTGCA]” the binding signal (PBM E-score (-0.5 to 0.5)) [5] was 0.469.

Work on “ACGCCCCC (double strand) [8-mer ACGCCCCC]” yielded a binding signal (PBM E-score (-0.5 to 0.5)) [14] of 0.486, a binding signal (PBM E-score (-0.5 to 0.5)) [8] of 0.495 and a binding signal (PBM E-score (-0.5 to 0.5)) [9] of 0.495. It also gave a binding signal (PBM E-score (-0.5 to 0.5)) [10] of 0.49.

For “ATGTTTAC (double strand) [8-mer ATGTTTAC]”, the binding signal (PBM E-score (-0.5 to 0.5)) [3] was 0.455.
